Measured values from patent publication US20060183195A1 (published 2006).
Numbering of substitutions follows the chain as printed. Values belong to the binder of their own block, whether it stands above or below them.

Legend:
[1] = biological target: T1, recombinant soluble human CD4 (human, UniProt P01730 26-396, limits assumed); assay: association and dissociation rates of human CD4 antigen for the antibody; method not named
T1 construct: Soluble recombinant antigen used in ELISA and on or over the sensor chip; also called rCD4; sCD4

[2] = biological target: T2, native human CD4 on the cell surface (human, UniProt P01730 26-458); assay: flow cytometry, serial dilutions on SupT1 cells, half-maximal fluorescence
T2 construct: whole, on cells; also called native CD4; CD4 on SupT1 cells
Method: (§1) The avidity and affinity determinations described above were performed with recombinant CD4 (rCD4). To determine the avidity of the human monoclonal antibodies for native CD4 (nCD4). […] Specifically, serial dilutions of antibody were incubated with SupT1 cells for 6 hr on ice, washed and detected any bound antibody with FITC-goat anti-human Fey.
(§2) *Human monoclonal antibodies were incubated in serial dilutions with SupT1 cells for 6 hrs, washed twice and incubated with FITC-conjugated goat anti-human Fey antisera, washed and fixed. The Ka was calculated from the concentration of antibody yielding one-half of the maximum fluorescence as determined from a four-parameter fit.

[3] = biological target: T2, native human CD4 on the cell surface; assay: ratio of Ka on rCD4 (BIAcore) to Ka on nCD4 (flow cytometry, SupT1)
Method: (§3) The rate and equilibrium constants presented in Table 19 were determined with a BIAcore, using antigen (rCD4) coupled to the sensor chip and flowing mAb over. These constants were derived from at least three independent experiments using purified mAbs.
as §1, §2

[4] = biological target: T2, native human CD4 on the cell surface; assay: flow cytometry, serial dilutions on SupT1 cells
Method: as §1, §2

[5] = biological target: T1, recombinant soluble human CD4; assay: SPR, sCD4 amine-coupled to sensor chip, antibody flowed over
[6] = biological target: T1, recombinant soluble human CD4; assay: BIAcore, rCD4 coupled to chip, mAb flowed over
Method: as §3

[7] = biological target: T1, recombinant soluble human CD4; assay: rCD4 column of Table 21 (same values as Table 19: BIAcore, rCD4 on chip)
Method: as §3

[8] = biological target: T1, recombinant soluble human CD4; assay: BIAcore, mAb captured on anti-human IgG Fc chip, rCD4 flowed over
Method: The rate and equilibrium constants presented in Table 18 were determined with a BIAcore (Pharmacia Biosensor) using goat anti-human IgG (Fc-specific) coupled to the sensor chip and flowing a saturating concentration of mAb over followed by various concentrations of antigen (rCD4). These constants were derived from three experiments using purified mAbs.

[9] = biological target: T3, chimpanzee CD4 on peripheral blood lymphocytes (chimpanzee, UniProt P16004 26-458); assay: two-colour flow cytometry on peripheral blood lymphocytes
T3 construct: whole, on cells; also called chimpanzee CD4 cells
T3 sequence (P16004 26-458): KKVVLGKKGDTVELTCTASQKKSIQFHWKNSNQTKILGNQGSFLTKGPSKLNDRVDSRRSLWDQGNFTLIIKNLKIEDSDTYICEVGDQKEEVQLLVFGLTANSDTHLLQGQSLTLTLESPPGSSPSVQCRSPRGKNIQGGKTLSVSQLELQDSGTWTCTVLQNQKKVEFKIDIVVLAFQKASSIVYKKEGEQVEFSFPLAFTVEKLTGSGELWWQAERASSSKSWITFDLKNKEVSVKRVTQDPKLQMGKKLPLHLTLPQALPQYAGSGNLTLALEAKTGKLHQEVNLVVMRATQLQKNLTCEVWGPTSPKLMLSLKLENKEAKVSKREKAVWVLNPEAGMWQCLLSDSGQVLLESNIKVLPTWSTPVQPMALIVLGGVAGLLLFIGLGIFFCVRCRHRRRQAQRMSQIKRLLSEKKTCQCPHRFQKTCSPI
Method: (§4) It is further desirable for some purposes that the animal be a non-human primate that expresses CD4 comprising a cross-reactive epitope with human CD4 such that it is recognized by the monoclonal antibody. […] Peripheral blood lymphocytes were isolated from whole blood of chimpanzee, rhesus, and cynomolgus monkeys. […] The stained cells were then analyzed by flow cytometry to determine if each of the human monoclonal antibodies bound to endogenous CD4 on the surface of lymphocytes from each of these three non-human primates.

[10] = biological target: T4, cynomolgus monkey CD4 on peripheral blood lymphocytes (cynomolgus monkey, UniProt P79185 26-458); assay: as above
T4 construct: whole, on cells; also called cynomolgus CD4 cells
T4 sequence (P79185 26-458): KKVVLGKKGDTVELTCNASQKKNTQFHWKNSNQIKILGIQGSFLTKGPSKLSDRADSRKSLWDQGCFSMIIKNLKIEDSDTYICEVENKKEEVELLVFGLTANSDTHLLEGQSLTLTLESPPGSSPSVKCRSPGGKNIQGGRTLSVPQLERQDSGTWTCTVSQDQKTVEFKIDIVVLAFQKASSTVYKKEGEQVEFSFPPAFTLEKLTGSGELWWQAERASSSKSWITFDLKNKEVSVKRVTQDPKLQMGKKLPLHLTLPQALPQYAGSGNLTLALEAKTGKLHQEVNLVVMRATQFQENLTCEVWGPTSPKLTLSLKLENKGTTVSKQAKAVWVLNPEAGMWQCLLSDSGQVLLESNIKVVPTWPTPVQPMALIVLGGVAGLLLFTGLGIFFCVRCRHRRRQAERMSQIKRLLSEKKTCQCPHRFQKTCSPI
Method: as §4

[11] = biological target: T5, rhesus monkey CD4 on peripheral blood lymphocytes (rhesus monkey, UniProt P16003 26-458); assay: as above
T5 construct: whole, on cells; also called rhesus CD4 cells
T5 sequence (P16003 26-458): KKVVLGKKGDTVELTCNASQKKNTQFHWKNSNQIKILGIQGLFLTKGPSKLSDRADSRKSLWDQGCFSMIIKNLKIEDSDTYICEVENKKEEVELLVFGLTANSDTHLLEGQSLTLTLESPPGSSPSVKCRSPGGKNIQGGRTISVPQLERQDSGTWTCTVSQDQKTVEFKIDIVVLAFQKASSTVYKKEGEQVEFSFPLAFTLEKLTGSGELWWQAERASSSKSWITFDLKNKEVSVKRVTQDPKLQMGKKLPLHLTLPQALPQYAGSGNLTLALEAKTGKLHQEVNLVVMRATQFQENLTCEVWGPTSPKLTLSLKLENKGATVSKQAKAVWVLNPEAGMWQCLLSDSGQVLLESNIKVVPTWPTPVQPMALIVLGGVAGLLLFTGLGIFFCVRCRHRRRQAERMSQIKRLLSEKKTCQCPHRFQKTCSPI
Method: as §4

B3: 4D1.4 (antibody, V domains shown)
VH: EVQLVQSGAEVKKPGESLKISCKGSGYSFTGYWIGWVRQMPGKGLEWMGIIYPGDSDTTYSPSFQGQVTISADKSISTAYLQWSSLKASDTAMYYCARDQLGLFDYWGQGTLVTVSS
VL: DIQMTQSPSSLSASVGDRVTITCRASQGISSWLAWYQQKPEKAPKSLIYSASSLQSGVPSRFSGSGSGTDFTLTISSLQPEDFATYYCQQYDSYPYTFGQGTKLEIKR
notes: Human IgG1 kappa from a hybridoma of an HC2/KCo5 transgenic mouse
Ka [2]: 2e+09 M⁻¹
Ratio of Ka (rCD4/nCD4) [3]: 1.2
Ka [4]: > 1e+09 M⁻¹
Ka [5]: 2.3e+09 M⁻¹
koff [5]: 4.2e-05 s⁻¹
kon [5]: 98000 M⁻¹ s⁻¹
Ka [6]: 2.3e+09 M⁻¹
koff [6]: 4.2e-05 s⁻¹
kon [6]: 98000 M⁻¹ s⁻¹
Ka [7]: 2.3e+09 M⁻¹
Ka [8]: 7.3e+07 M⁻¹
koff [8]: 0.0034 s⁻¹
kon [8]: 250000 M⁻¹ s⁻¹

B4: 2C5.1 (antibody, V domains shown)
VH: EVQLVQSGAEVKKPGESLKISCKGSGYRFTSYWIGWVRQMPGKGLEWMGIIYPGDSDTRYSPSFQGQVTISADKSISTAYLQWSSLKASDTAMYYCARAPTGDWFDPWGQGTLVTVSS
VL: B3 VL with S50A, D92N, Y96P, Q100G, L104V
Ka [1]: ~8e+07 M⁻¹

Second part, the binder after the results:

Ka [1]: ~9e+07 M⁻¹
B1: 4E4.2 (antibody, V domains shown)
VH: B4 VH
VL: B3 VL with E41D, S50A, R61K, D92N, Y96P, Q100G, L104V

Ka [2]: 1e+09 M⁻¹
Ratio of Ka (rCD4/nCD4) [3]: 5.9
Ka [4]: > 1e+09 M⁻¹
Ka [5]: 1.1e+10 M⁻¹
koff [5]: 1e-05 s⁻¹
kon [5]: 110000 M⁻¹ s⁻¹
Ka [6]: 1.1e+10 M⁻¹
koff [6]: 1e-05 s⁻¹
kon [6]: 110000 M⁻¹ s⁻¹
Ka [7]: 1.1e+10 M⁻¹
Ka [8]: 1.4e+08 M⁻¹
koff [8]: 0.00069 s⁻¹
kon [8]: 93000 M⁻¹ s⁻¹
B2: 6G5.1 (antibody, human IgG1, V domains shown)
VH: QVQLQQWGAGLLKPSETLSLTCAVYGGSFSGYYWSWIRQPPGKGLEWIGEINHSGSTNYNPSLKSRVTISVDTSKNQFSLKLSSVTAADTAVYYCARVINWFDPWGQGTLVTVSS
VL: B3 VL with L11V, G28D, Q38H, E41G, S46L, S50A, Y91A, D92N, Y94F
notes: Human IgG1 kappa from a hybridoma of an HC2/KCo5 transgenic mouse; VH4-34/JH5; VkL19/Jk2

Ka [2]: 1e+09 M⁻¹
Ratio of Ka (rCD4/nCD4) [3]: 2.5
Ka [4]: > 1e+09 M⁻¹
Ka [5]: 4.5e+10 M⁻¹
koff [5]: 1.6e-05 s⁻¹
kon [5]: 74000 M⁻¹ s⁻¹
Ka [6]: 4.5e+09 M⁻¹
koff [6]: 1.6e-05 s⁻¹
kon [6]: 74000 M⁻¹ s⁻¹
Ka [7]: 4.5e+09 M⁻¹
Ka [8]: 1.3e+08 M⁻¹
koff [8]: 0.00071 s⁻¹
kon [8]: 94000 M⁻¹ s⁻¹
binding result [9]: binds
binding result [10]: binds
binding result [11]: binds
B5: 10C5.6 (antibody, human IgG1, V domains shown)
VH: B2 VH
VL: DIQMTQSPSSVSASVGDRVTITCRASQDISSWLAWYQHKPGKAPKLLIYAASSLQSGVPSRFSGSGSGTDFTLTISSLQPEDFATYYCQQANSFPYTFGQGTKLEIK
notes: as for B3
